From PMC7015237, “mTORC1 signalling is not essential for the maintenance of muscle mass and function in adult sedentary mice” (Journal of Cachexia, Sarcopenia and Muscle, 2019)

Biological target: T1, eukaryotic translation initiation factor 4E (mouse (endogenous in gastrocnemius …, UniProt P63073 1-217))
T1 construct: eukaryotic translation initiation factor 4E (eIF4E), mouse, endogenous in gastrocnemius muscle; also called eIF4E; source: endogenous, mouse gastrocnemius muscle lysate (3 month iRAmKO and control mice)
Test: pull-down; m7GTP-agarose beads on 400 ug gastrocnemius lysate of 3 month iRAmKO (raptor-depleted) and control mice, overnight at 4°C; lysis buffer 20 mM Hepes pH 7.4, 50 mM KCl, 0.2 mM EDTA, 0.5% Triton X-100; western blot for eIF4E and 4E-BP1; 4E-BP1 normalised to eIF4E
Conditions: partners not purified

T1 sequence (P63073 whole entry): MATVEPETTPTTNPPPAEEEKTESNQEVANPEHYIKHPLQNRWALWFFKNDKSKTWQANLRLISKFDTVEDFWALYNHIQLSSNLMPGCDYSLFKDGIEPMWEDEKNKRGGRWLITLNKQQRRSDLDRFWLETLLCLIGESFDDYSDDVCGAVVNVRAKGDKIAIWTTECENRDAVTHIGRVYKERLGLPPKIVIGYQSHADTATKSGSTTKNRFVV

- fold change of the ratio of 4E-BP1 to eIF4E in the m7GTP pulldown, iRAmKO against control mice: 2.5 fold
B1: eukaryotic translation initiation factor 4E-binding protein 1 (natural protein, UniProt Q60876 1-117, looked up)
chain: MSAGSSCSQTPSRAIPTRRVALGDGVQLPPGDYSTTPGGTLFSTTPGGTRIIYDRKFLMECRNSPVAKTPPKDLPAIPGVTSPTSDEPPMQASQSQLPSSPEDKRAGGEESQFEMDI
notes: Phosphorylation of 4E-BP1 (S65) is lower in iRAmKO muscle than in controls; the phosphorylation state of the pulled-down protein was not determined; also called 4E-BP1; source: endogenous, mouse gastrocnemius muscle lysate (3 month iRAmKO and control mice)
